{"source": "paper PMC9088182", "about": "(Cell reports, 2022)", "proteins": {"B1": {"name": "TRPV5 Thr709Asp phosphomimetic mutant (rabbit) (natural protein)", "chain": "MGACPPKAKGPWAQLQKLLISWPVGEQDWEQYRDRVNMLQQERIRDSPLLQAAKENDLRLLKILLLNQSCDFQQRGAVGETALHVAALYDNLEAATLLMEAAPELAKEPALCEPFVGQTALHIAVMNQNLNLVRALLARGASVSARATGAAFRRSPHNLIYYGEHPLSFAACVGSEEIVRLLIEHGADIRAQDSLGNTVLHILILQPNKTFACQMYNLLLSYDEHSDHLQSLELVPNHQGLTPFKLAGVEGNTVMFQHLMQKRKHVQWTCGPLTSTLYDLTEIDSWGEELSFLELVVSSKKREARQILEQTPVKELVSFKWKKYGRPYFCVLASLYILYMICFTTCCIYRPLKLRDDNRTDPRDITILQQKLLQEAYVTHQDNIRLVGELVTVTGAVIILLLEIPDIFRVGASRYFGQTILGGPFHVIIITYASLVLLTMVMRLTNMNGEVVPLSFALVLGWCSVMYFARGFQMLGPFTIMIQKMIFGDLMRFCWLMAVVILGFASAFHITFQTEDPNNLGEFSDYPTALFSTFELFLTIIDGPANYSVDLPFMYCITYAAFAIIATLLMLNLFIAMMGDTHWRVAQERDELWRAQVVATTVMLERKMPRFLWPRSGICGYEYGLGDRWFLRVENHHDQNPLRVLRYVEAFKCSDKEDGQEQLSEKRPSTVESGMLSRASVAFQTPSLSRTTSQSSNSHRGWEILRRNDLGHLNLGLDLGEGDGEEVYHF"}}, "biological_target": "the molecule itself", "experiment": "cryo-EM structure", "data": [{"protein": "B1", "values": [{"measurement": "binding result", "result": "binds"}]}]}
